# Reference: publication PMC4318453
# B1: BKPyV agnoprotein, purified full-length (natural protein)
# chain: MVLRQLSRQASVKVGKTWTGTKKRAQRIFIFILELLLEFCRGEDSVDGKNKSTTALPAVKDSVKDS
# Legend:
# heat shock protein 40 = heat shock protein 40 (UniProt P25685); experiment: FRET or BRET; positive control of the FRET experiment, results not shown
# [1] = target: Proliferating cell nuclear antigen, purified recombinant (UniProt P12004)
# Sequence of UniProt P25685 (P25685 whole entry): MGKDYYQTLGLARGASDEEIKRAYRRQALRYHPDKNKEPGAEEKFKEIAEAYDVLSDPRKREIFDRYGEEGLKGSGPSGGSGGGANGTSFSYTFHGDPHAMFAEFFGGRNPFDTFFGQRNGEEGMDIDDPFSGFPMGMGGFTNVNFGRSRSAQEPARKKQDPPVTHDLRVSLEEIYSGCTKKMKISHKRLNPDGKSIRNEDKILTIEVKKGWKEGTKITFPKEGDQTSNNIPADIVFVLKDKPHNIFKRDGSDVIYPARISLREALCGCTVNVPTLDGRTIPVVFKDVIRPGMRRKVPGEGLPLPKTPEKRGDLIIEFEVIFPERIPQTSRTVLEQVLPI
Molecule,FRET efficiency (heat shock protein 40),"PCNA:pol δ-mediated in vitro DNA synthesis (polydA/oligodT, [3H]dTTP incorporation) with increasing amounts of agnoprotein [1]"
mitogen-activated protein kinase MK5 (from UniProt Q8IW41 1-473) (enzyme),15%,
B1,,50%
